The target of test [1] is human IL-7Rα expressed on non-T cells (CD3- cells, monocytes) (human) (UniProt P16871). The experiment in a line: cell-based or functional assay.
Test [2] addresses T1, hIL-7R (Example 11) (human) (UniProt P16871).
T1 sequence: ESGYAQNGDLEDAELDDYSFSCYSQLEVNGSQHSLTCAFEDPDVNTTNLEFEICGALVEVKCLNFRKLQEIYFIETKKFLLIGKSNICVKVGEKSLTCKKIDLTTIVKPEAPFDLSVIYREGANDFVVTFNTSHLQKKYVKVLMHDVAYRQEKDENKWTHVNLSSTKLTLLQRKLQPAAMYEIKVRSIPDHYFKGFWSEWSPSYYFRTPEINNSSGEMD
The test can be described thus: NGS enrichment ratio of the mutation in the scFv library selected at 0.2 nM hIL-7R.

The target in test [3] is T1, hIL-7R (Example 11) (human). The test can be described thus: SPR (Biacore), ratio KD of parent 18B1 to KD of variant.
Test [4] shares this target. The test can be described thus: SPR at 37C.
For test [5] the target is unchanged. The experiment in a line: NGS enrichment ratio, parental scFv, reference of the normalisation [cont'd].

Numbering of substitutions follows the chain as printed. In names and notes the source's numbering stands.

B1: Anti-IL-7R Antibody (Antibody A) (antibody, human IgG1, kappa, V domains shown)
VH: EVQLVESGGGLVQPGRSLRLSCAASGFTFDDHAMHWVRQAPGKGLEWVSGISWNSRGIGYADSVKGRFTIFRDNAKNSLYLQMNSLRAEDTALYYCAKDEYSRGYYVLDVWGQGTTVTVSS
VL: AIQLTQSPSSLSASVGDRVTITCRASQGISSALAWYQQKPGKAPKLLIYDASSLESGVPSRFSGSGSGTDFTLTISSLQPEDFATYYCQQFNSYPLWITFGQGTRLEIKR
With B1, the MCP1 Production IC50, purified monocytes, TSLP in test [1] worked out at 24 nM.

B2: 18B1 LC Y94A (antibody, human IgG1, kappa, V domains shown)
VH: B1 VH
VL: B1 VL with Y94A
As for B2, the 0.2 nM NGS in test [2] amounted to 0.01. The KD Relative to 18B1 in test [3] worked out at 0.01.

B3: 18B1 LC L95aA (antibody, V domains shown)
VH: B1 VH
VL: B1 VL with L96A
Take B3: the 0.2 nM NGS in test [2] came out at 0.01. Besides, the KD Relative to 18B1 in test [3] came out at 0.01.

B4: 18B1 scFv (scFv, V domains shown, not shown: small tags and cut ends)
VH: B1 VH
VL: AIQLTQSPSSLSASVGDRVTITCRASQGISSALAWYQQKPGKAPKLLIYDASSLESGVPSRFSGSGSGTDFTLTISSLQPEDFATYYCQQFNSYPLWITFGQGTRLEIK
modifications: linker; domain order unknown
As for B4, in test [4], the Kd (in general, a measure of binding affinity in units of concentration) is 1.3 nM; the koff – broadly, the first-order rate constant of dissociation – was 0.000403 s⁻¹; the kon – broadly, a measure of how fast the partners come together – was 311000 M⁻¹ s⁻¹. Also, the 0.2 nM NGS in test [5] was 1.
